From a protein production outcome set (Wang et al. 2014)

Assay: label from the status in PepcDB records
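Note: failed if final PepcDB status was selected cloned or expressed and not failed if soluble or beyond.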

Row | Sequence | protein production
1 | MVVSLCSPGKCRKGTIVSRASLRANEGRRIERSTIAPSDLPPFRSRVSQPELPVERADHDADSVADGGWQATLCALEALAGGVDEAAGTGDGRRLLWALTLDADGVVGTIEPLEQTHGARGWSKPRPVPLARVAEDDTLPQWDVRVARAIRRDASRNRRHVLDRAAAVVALVGHPAVVLSHAPTVPMEVVESAPSLEAVREGDRYVLRIVPPLREALAMEDFLPAAARQEAESLRQITVLQDGPRRLRVVRFTPAQQGAAKLIAGGLSVPADAQARLDSTLRALAGHFQIHADSSGEARERDPESRLRAEVAPVGRGISLRLVVTPLGVLGPRLAPGHGRAQLMATIGGETHVTYRDLDAEHAHVAEVFEALPFLVQQAPAGGEHTWTLDDPEDALTAIEVLPGLAGVIDLEWPRGRELRVLPADIAQLAVSVETGSEWFKLVGELRVAEGLVISLEKLVAWAHGHAGRFMPMAHGVYVALTRQLRDRLRDLAGVGDGVRDGIRVPLVAAPWLDDVLAGAGIDPDAHFRTRVKQLRAARGHDAPVPPTLVAELRPYQLEGFRWMMSLAEAGFGACLADDMGLGKTLQSLAVLLARAAGGPALVVAPTSVCGNWATEARRFAPALRVHVYADGDREAIVGQAAAHDLVIVSYNLLQQARKAFCDRHWHTVVADEAQSFKNPSSRRAQAMFALPADCRIALSGTPVENRLAELWAVMRFCVPGLLGSLARFNEHFANPIERSGARDPRQRLRRMIAPFVLRRTKAQVLDELPPRTELVIRVTPEPTEAAHYEALRRQALSEAERALLRPRKDKKAPAAMTEPEARIHVLAQLMRMRRAACDPRLVTPDVGQPGAKVRAFAELAATLAANGHKTLVFSQFVDFLQMLRQALVDAGLAWQYLDGATPAGERTRRVAAFQAGEGDVFLISLKAGGFGLNLTAADYIVIADPWWNPAAEDQAMGRAHRIGQQRPVTVYRLIAAGTIEERIVDLHQGKRALADGVLDAMDGEAIGRDVPLPDVDELVGLLRR | failed
2 | MKKQELIHLHGLLAQVQNHYEAESGTEVDHDEYEELGVKPTSIHKSKTDHKAAVFAIADGIASEMADETKEPVSAAADLEHHHHHH | not failed
3 | MKERVIITGANGQLGKQLQEELNPEEYDIYPFDKKLLDITNISQVQQVVQEIRPHIIIHCAAYTKVDQAEKERDLAYVINAIGARNVAVASQLVGAKLVYISTDYVFQGDRPEGYDEFHNPAPINIYGASKYAGEQFVKELHNKYFIVRTSWLYGKYGNNFVKTMIRLGKEREEISVVADQIGSPTYVADLNVMINKLIHTSLYGTYHVSNTGSCSWFEFAKKIFSYANMKVNVLPVSTEEFGAAAARPKYSIFQHNMLRLNGFLQMPSWEEGLERFFIETKSH | not failed
4 | MAKQDVIELEGTVLDTLPNAMFKVELENGHEILAHVSGKIRMNYIRILPGDKVTVEMSPYDLTRGRITYRYK | failed
5 | MSLKNKLQVKIPGKLYVAGEYAVVESGHTAILTAVNRYITLTLEDSERNELWIPHYENPVSWPIGGELKPDGEHWTFTAEAINIATTFLKSEGIELTPVKMVIETELIDQSGAKYGLGSSAAATVAVINALMTKFYPEISMLKKFKLAALSHLVVQGNGSCGDIASCMYGGWIAYTTFDQEWVKHRLAYKSLEWFMKEPWPMLQIETLEEPVPTFSVGWTGTPVSTGKLVSQIHAFKQEDSKNYQHFLTRNNEIMKQIIQAFHTKDEELLYSSIKENRRILQELGTKAGVNIETSLLKELADSAENMGGAGKSSGSGGGDCGIAFSKTKELAEKLVNEWEKLGIKHLPFHTGRVQITEGHHHHHH | not failed
6 | MRHNIKFKSKGTLKIRNTAQISLWKKCSDSMIADQTYLFINRVQDRRFDEESLRILELSLVAMNVKSFLEVRSRLRDFMRSESVVIFGELTGESMVAKLSVLEFFARAFALLGDMESCLAMRYEALNLRQLKSPSCLWLGVSHSEWTKFAVQSMENGFPSIAGKASENALLSLKKDSLIEPKSEDNSDILDAAEKVRRLRDSAASLTSSHSGIFIYIVSSLKFAVCNRLLTTF | failed
7 | MKHIHIIGIGGTFMGGIAAIAKEAGFKVSGCDAKMYPPMSTQLEALGIGVHEGFDAAQLEEFQADIYVIGNVARRGMDVVEAILNRGLPYISGPQWLAENVLHHHWVLGVAGTHGKTTTASMLAWVLEYAGLAPGFLIGGVPENFGVSARLPQTPRQDPNSKSPFFVIEADEYDTAFFDKRSKFVHYRPRTAVLNNLEFDHADIFADLGAIQTQFHHLVRTVPSEGLIVCNGQQQSLQDTLDKGCWTPVEKFGTGHGWQIGEVNADGSFDVLLDGKKAGHVAWDLMGGHNRMNALAVIAAARHAGVDVQTACEALGAFKNVKRRMEIKGTANGITVYDDFAHHPTAIETTIQGLRQRVGGARILAVLEPRSNTMKLGTMKSALPASLKEADQVFCYAGGADWDVAEALAPLGCRLRVGKDFDTFVAEIVKNARTGDHILVMSNGGFGGIHTKLLDALR | not failed
8 | MKQAIGFIDSGVGGLTVVREVLKQLPHEQVYYLGDTARCPYGPRDKEEVAKFTWEMTNFLVDRGIKMLVIACNTATAAALYDIREKLDIPVIGVIQPGSRAALKATRNNKIGVLGTLGTVESMAYPTALKGLNRRVEVDSLACPKFVSVVESGEYKSAIAKKVVAESLLPLKSTKIDTVILGCTHYPLLKPIIENFMGDGVAVINSGEETASEVSALLDYHNLLDATDEEIEHRFFTTGSTQIFKDIAKDWLNMPDMTVEHIKLGK | not failed
9 | MIELIDPISKQRLEESPEGLRNENGIVVYPLINGAYRVAASDNYTSNFGLEWNTFQKTQIDKFSGNTVSEERLFAQTNWQKNGLEGETILEVGSGAGRFSQIMLDHTKATLYSVDYSEAVEANYRNNGPHERFKLFQASIYELPFKQASFDRVICLGVLQHTPDFKASVKALVEMVKPGGELVIDFYPIRNVFTKVHGKYLLRPILKRVNHHRLMSLIRNNIDFLISIYTFNRRIGLGVFNRFVPICEIERTLPKGMTPEQLKEWIILDTFDMFSPEYDQPQRLSTVAKWVKEFGMADVDASWVTYHGKLEAPTVRGRKVLEHHHHHH | not failed
10 | MTYMYDHDHIPKHITATIWEHLQRENPNFFKEYNKRCELVRQIVTLNDLLAQQIDLMQRLSQLDVGTTAPVTKLQEPNDHHHDEVQTLEQWLETNGFANIEDTFLCLSDLVDAPVTEVQKPKDKDQSCDQWINGSNDLASIEETVSSLINPSPFAETPQSEPPGLRYDTDCACITATSNLVTWVYDPSGDNKSGVEISSERRFGANISLERRRPREAGFTEQRPPSVLDGGRITGPLSSEPTMTH | failed
11 | MTTPIALRDWRLLAAGCGGLLLLAAAITLHSHWGDFLQWCLATQITLHRYLVMYLLLLNNHQYSGGIWLLVGAFLYGVLHAVGPGHGKFIVTTYLSTNQESLTAARVVPFLGSLLQGVTAILFVFILAVGLNLAAGDLSASRWYVEKISALTIGVFGAYVIFRALQSLWPTKQVIRRLTPAHQHDASCGCGHHGVGQDMQGADWKTRLGVVLAIGVRPCSGAIMILLFANALGIVSWGIAAVMSMALGTALSILGLSLLVHYARHRTVKRLVTNHRPRPWLVPLVKILGGLALILFAVGLFFSVVPISANGDFIAAGC | failed
12 | AHARLQITQFAMDSVGIGIQWIDPDSGRFVYANRHTAELLGYSEQEMLTLTVSDIDPAFPLPAFHATMARLRQSRYTQFQSQIETRGGVPIPVEITLYYMEGDADAPARVIAFLTDISRRKETEQTLVQAKEAAEKANLAKTAFVANMSHEIRTPMNAILGMV | failed
13 | MLSLKSEVLARHLPLFNGKSILLFGNVRDRFADQIRSISSHVAIFSHYFDYARHYNDVEFGLDCTTPANLGVFYWTKNKQECHYQLLQWLSQTAIGQQMLIIGENRAGVRSVEKLLSPFGQIAKIDSARRCGLYHFELQTIPQFDCQKFWKSYRLADLTVLSLPAAFSSTELDAGSQLLLSSFTNQDRLTGNVLDLGCGAGVIGAYLKQRFPAISLTMSDIHSMAIHSAQATLAKNKLTGTVIASDVFSHINDRFDLIVSNPPFHDDIDTAYHTVESLIMQAKNHLNYGGELRIVANAFLPYPDLLDKAFGSHQVVTKSNKFKVYSARV | failed
14 | MVGLADVAVLYSGGKDSNYALYWALKSGLRVRYLVSMVSENEESYMYHTPNVELTSLQARALGIPIIKGFTKGEKEKEVEDLKNVLEGLKVDGIVAGALASRYQKERIENVARELGLKVYTPAWEKDPYQYMLEIIKLGFKVVFVAVSAYGLNESWLGRELNYKNLEELKKLSEKYGIHIAGEGGEFETFVLDMPFFKAKIVIDDAEKFWDGLSGKFIIKRAHLEWK | not failed
15 | EQQADGTWLMDGWISIRKASNLLEHDLVDEAERYSTLGGYLLWQFGYIPAAGEQITVDGLIFEIVSVNKHNIGKVRVHRTQ | not failed
16 | MAGKQQERVNVEGHELTLTNLNKIIYPETGTTKAEVLEYYAAVAPFLIPAAANRPVTRKRWVNGVGTAENPGQVFFQKNLEDSAPKWIPRAAIQHSDHTNVYPMVNNLATLTWMAQIASLEIHVPQWQVDPSGKPLRPDRFVLDLDPGPGAGLPECVEVAKLARSILQDMGMDPVPVTSGSKGIHLYTGLDGTLKSEQVSAFAKELARALESDHPELVVSDMKKSLRHGKVLVDWSQNSGNKTTIVPYSLRGKAHPTVAAPRTWRELSSPSLEHLDYVAVMKRVKTGKDHFAPISERHLPPHGEDENDDDGTAGSSSGTGRSRERVVTVENRLAKYVGMRDPGKTPEPFPSSSAVSASPQSAGSSSDQPKPGDPPPPGGIFVIQEHHARRYHLDLRLEHHGVLASWALPRGIPETPDRNNLAVHTEDHPMEYANFAGVIPKGEYGAGTMTIWDRGEYTCEKWRDGKEVIATLTGEPGGGLGGTKRFALINTGQNWLIHLMKEQPGGRRGTQPAANAAAPKSAPAQPQPQPMPNYSPMLATSGTTADLRGDDWLYELKWDGIRAIITGTESRIRLMSRNGNDLTAAYPELTDRACWPDGDFVADGEIVALGKGSRPDFGRLQLRMNLVKAADIERARATVPVQLMLFDLLYDDGTDLSGLPFHERRERLSGFAERWRVGCPLHLSAVLDHDVEDLMTSAAELGLEGVMAKKADSRYVIGRRSRSWIKLKLEQSQEVVVGGWRPGAGARAGTFGALLLGIPDGDKLHYVGRVGSGFKDWQLRDIMEKLEPLAIVESPFADIPREDAAGATWVSPELVAEVTFGEWTGPGRLRHPVWRGWRPDKSAGEVTLAGS | failed
17 | MINKVLLEGQRITRSPQVKQHACGASFFLVVLLLIGGLLYSTISWMWDEQRLPLSKLVLQGDLHYVSALDVQRVLARLDHIGTFMSQDINVLQESVQSIPWVSHASIRKQWPDTIKVYLTEYQVEALWNANALLDKNGTVFYGDIARVNGEYVKLYGPDGTAPQVLKAWRDYNPKFAQLGLNISSLVLNDRRAWQIILDNGIRLELGKESLEERISRFFLLYKQLGNKAEQVSYIDLRYDTGAAVGWFPEQELTQEKNDD | failed
18 | MAKKRSKLEIIQAILEACKSGSPKTRIMYGANLSYALTGRYIKMLMDLEIIRQEGKQYMLTKKGEELLEDIRKFNEMRKNMDQLKEKINSVLSIRQ | not failed
19 | MGFYLGITALKSIGNNKNNNIDNENNHQAKILTFPVSFTCRTFLPARGDILQGTVKKVLWNGAFIRSGPLRYAYLSLLKMPHYHYVHSPLSEDEKPHFQKDDLSKIAVGVVVRFQVLAVRFKERPHKRRNDYYVLATLEGNGSFGP | not failed
20 | MQFIKNLQLNKKKDSDSSEQVLTNKKNKMKYEDFNFIRTLGTGSFGRVILATYKNGNYPPVAIKRFEKCKIIRQKQVDHVFSERKILNYINHPFCVNLHGSFKDDSYLYLVLEFVIGGEFFTFLRRNKRFPNDVGCFYAAQIVLIFEYLQSLNIVYRDLKPENLLLDKDGFIKMTDFGFAKIVETRTYTLCGTPEYIAPEILLNVGHGKAADWWTLGIFIYEILVGCPPFYANEPLLIYQKILEGIIYFPKFLDNNCKHLMKKLLSHDLTKRYGNLKKGAQNVKEHPWFSNIDWVNLLNKNVEVPYKPKYKNIFDSSNFERVQEDLTIADKITNENDPFYDW | failed
21 | ILVKNLPQDSNCQEVHDLLKDYDLKYCYVDRNKRTAFVTLLNGEQAQNAIQMFHQYSFRGKDLIVQLQPTDALLC | not failed
